Molecular target: CFP-Cav1 (human caveolin-1 with CFP at its N terminus) (human) (UniProt Q03135)
Test: FRET or BRET

UniProt Q03135, sequence (Q03135 whole entry): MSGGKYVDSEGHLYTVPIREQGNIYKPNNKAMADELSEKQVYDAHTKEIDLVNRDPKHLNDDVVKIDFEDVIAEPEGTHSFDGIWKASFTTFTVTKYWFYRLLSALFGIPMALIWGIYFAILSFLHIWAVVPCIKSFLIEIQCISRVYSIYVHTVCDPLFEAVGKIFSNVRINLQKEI

FRET efficiency: 15%
Substance: YFP-tagged rat Na/K-ATPase α1 pump-null mutant D371N (natural protein)
